Reference: PMC9890960, “Exploiting photosynthesis-driven P450 activity to produce indican in tobacco chloroplasts” (Frontiers in Plant Science, 2023)

T1: CYP2A6 (Homo sapiens, UniProt P11509)
T1 construct: N-terminal Arabidopsis Fd2 transit peptide fusion; transient expression in Nicotiana benthamiana chloroplasts; amplified from E. coli expression construct
T1 sequence (P11509 1-494): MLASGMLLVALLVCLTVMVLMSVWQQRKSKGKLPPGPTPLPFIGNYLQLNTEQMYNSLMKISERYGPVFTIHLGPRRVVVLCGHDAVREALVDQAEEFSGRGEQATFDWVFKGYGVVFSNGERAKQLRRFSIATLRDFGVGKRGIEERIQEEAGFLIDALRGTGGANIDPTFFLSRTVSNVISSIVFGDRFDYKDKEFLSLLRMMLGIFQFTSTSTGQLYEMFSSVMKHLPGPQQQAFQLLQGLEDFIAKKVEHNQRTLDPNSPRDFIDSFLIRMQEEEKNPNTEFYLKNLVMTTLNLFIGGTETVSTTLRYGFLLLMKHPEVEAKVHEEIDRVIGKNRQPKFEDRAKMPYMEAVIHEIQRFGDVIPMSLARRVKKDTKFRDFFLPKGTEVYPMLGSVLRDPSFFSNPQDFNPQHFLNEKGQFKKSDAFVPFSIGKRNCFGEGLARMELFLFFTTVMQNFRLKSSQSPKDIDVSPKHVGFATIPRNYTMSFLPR

T2: spinach FNR (spinach) (UniProt P00455)
T2 sequence: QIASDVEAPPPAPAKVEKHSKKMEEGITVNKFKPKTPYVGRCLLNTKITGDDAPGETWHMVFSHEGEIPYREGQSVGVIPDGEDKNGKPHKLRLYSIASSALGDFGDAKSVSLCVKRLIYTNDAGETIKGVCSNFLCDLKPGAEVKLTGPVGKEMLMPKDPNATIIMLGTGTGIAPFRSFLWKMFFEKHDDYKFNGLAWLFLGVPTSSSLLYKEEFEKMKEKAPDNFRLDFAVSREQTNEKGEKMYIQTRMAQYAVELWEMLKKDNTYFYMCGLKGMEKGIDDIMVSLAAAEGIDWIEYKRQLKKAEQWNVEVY

T3: IsiB^6803 (Synechocystis sp. PCC 6803, UniProt P27319)
T3 construct: gene from colony PCR, pET14b, E. coli BL21(DE3), HisTrap purified; apoprotein for ITC
T3 sequence (P27319 1-170): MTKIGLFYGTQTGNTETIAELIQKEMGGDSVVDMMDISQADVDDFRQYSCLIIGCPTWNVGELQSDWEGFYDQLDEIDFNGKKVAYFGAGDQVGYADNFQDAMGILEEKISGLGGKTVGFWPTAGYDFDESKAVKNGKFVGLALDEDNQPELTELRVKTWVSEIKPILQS

T4: HsCPR^62-241 (Homo sapiens, UniProt P16435)
T4 construct: gene POR; soluble flavodoxin-like (FMN) domain, residues 62-241, pET14b, E. coli BL21(DE3), HisTrap purified; apoprotein for ITC
T4 sequence (P16435 62-241): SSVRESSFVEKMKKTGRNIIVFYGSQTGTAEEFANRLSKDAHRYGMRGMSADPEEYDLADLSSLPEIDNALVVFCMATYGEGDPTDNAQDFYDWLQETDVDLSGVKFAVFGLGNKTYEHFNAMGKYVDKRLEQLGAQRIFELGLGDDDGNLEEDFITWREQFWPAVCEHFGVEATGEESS

B1: IsiB^6803 (natural protein)
chain: T3 sequence (P27319 1-170)
B2: HsCPR^62-241 (domain or fragment)
chain: T4 sequence (P16435 62-241)

Key:
CYP2A6 = target: T1, CYP2A6; test: indican formation in infiltrated N. benthamiana leaves, LC-MS; conditions: co-expressed with tnaA; chloroplast-targeted; product glucosylated to indican
CYP2E1 = target: T5, CYP2E1 (Homo sapiens, UniProt P05181); test: as above; conditions: co-expressed with tnaA; chloroplast-targeted; product glucosylated to indican
T5 construct: N-terminal Arabidopsis Fd2 transit peptide fusion; transient expression in Nicotiana benthamiana chloroplasts; amplified from E. coli expression construct

tnaA = target: T6, tnaA (Escherichia coli, UniProt P0A853); test: indole accumulation in infiltrated N. benthamiana leaves, UPLC-UV; design: species or system Nicotiana benthamiana leaves; conditions: chloroplast-targeted; endogenous tryptophan
T6 construct: synthetic gene, N-terminal chloroplast transit peptide (Arabidopsis Fd2); transient expression in Nicotiana benthamiana chloroplasts

spinach FNR (spinach) [1] = target: T2, spinach FNR (spinach)
spinach FNR (spinach) [2] = target: T2, spinach FNR (spinach); remark: listed apart in the source
IsiB^6803 = target: T3, IsiB^6803; test: isothermal titration calorimetry; format: binding; conditions: read-out: affinities
HsCPR^62-241 = target: T4, HsCPR^62-241; test: isothermal titration calorimetry; format: binding; conditions: read-out: affinities

T5 sequence (P05181 whole entry, the tested form may be a part): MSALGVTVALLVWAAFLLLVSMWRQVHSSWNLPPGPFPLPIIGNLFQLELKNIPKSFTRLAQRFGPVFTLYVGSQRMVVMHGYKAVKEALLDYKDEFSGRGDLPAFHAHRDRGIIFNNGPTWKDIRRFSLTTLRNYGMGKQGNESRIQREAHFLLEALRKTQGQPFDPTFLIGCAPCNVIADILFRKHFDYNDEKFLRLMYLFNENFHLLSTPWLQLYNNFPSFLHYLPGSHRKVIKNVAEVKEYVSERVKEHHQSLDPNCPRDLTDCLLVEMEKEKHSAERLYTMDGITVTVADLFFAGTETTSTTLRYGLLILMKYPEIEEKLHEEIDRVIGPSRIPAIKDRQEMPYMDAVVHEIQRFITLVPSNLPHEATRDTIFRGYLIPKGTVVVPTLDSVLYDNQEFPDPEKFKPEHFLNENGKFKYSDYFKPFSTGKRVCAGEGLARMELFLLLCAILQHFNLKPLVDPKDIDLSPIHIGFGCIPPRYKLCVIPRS
T6 sequence (P0A853 whole entry): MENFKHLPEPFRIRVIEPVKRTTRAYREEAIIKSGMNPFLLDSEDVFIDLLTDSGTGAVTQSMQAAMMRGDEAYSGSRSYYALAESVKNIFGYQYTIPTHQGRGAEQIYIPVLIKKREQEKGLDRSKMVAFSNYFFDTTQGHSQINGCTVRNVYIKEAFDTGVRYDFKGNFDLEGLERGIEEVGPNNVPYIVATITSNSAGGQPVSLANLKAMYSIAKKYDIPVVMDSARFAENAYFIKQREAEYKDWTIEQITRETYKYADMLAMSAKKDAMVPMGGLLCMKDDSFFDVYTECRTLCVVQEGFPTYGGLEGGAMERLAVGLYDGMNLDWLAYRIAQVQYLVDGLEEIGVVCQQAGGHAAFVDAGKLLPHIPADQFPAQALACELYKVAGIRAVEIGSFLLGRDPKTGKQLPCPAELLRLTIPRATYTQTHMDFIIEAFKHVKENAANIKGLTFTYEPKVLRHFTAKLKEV

| Molecule | KM of the electron carrier in NADPH-dependent reduction by FNR (40 nM spinach FNR, carrier 1-100 µM, read by cytochrome c reduction, Michaelis-Menten fit) (spinach FNR (spinach) [1]) [µM] | Vmax of NADPH-dependent reduction of the electron carrier by FNR (40 nM spinach FNR, carrier 1-100 µM, read by cytochrome c reduction, Michaelis-Menten fit) (µmol cyt c µmol FNR^-1 s^-1) (spinach FNR (spinach) [1]) | Vmax/KM of NADPH-dependent reduction of the electron carrier by FNR (spinach FNR (spinach) [2]) | further results |
| --- | --- | --- | --- | --- |
| c1ccc2[nH]ccc2c1 [indole] | – | – | – | indican formation in infiltrated N. benthamiana leaves, LC-MS (CYP2A6): accumulation was considerably higher when any P450 was co-expressed with tnaA; indican formation in infiltrated N. benthamiana leaves, LC-MS (CYP2E1): accumulation was considerably higher when any P450 was co-expressed with tnaA |
| N[C@@H](Cc1c[nH]c2ccccc12)C(=O)O [tryptophan] | – | – | – | indole accumulation in infiltrated N. benthamiana leaves, UPLC-UV (tnaA): Expression of tnaA alone led to detectable indole accumulation in leaf samples |
| AtFd1 (from UniProt O04090 53-148) (natural protein) | 21.7 | 118 | 5.4 | decrease of light-driven coumarin 7-hydroxylation by CYP2A B49 in thylakoids (10 µM redox partner) on adding 0.6 µM FNR and 1.6 mM NADP+ (spinach FNR (spinach) [2]): 80% |
| Cc1cc2nc3c(=O)[nH]c(=O)nc-3n(C[C@H](O)[C@H](O)[C@H](O)COP(=O)(O)O)c2cc1C [FMN] | – | – | – | Kd (IsiB^6803): 2 nM; Kd (HsCPR^62-241): 25.7 nM |
| B1 | 17.7 | 10 | – | – |
| B2 | 9.2 | 125 | 13.6 | – |
